The nature of the data set: Microparticle analysis, BF523-biotin binding of protein-coated particles before and after 95° C. It is filed as physicochemical. The settings on record: 30 minutes at 95° C., BF523-biotin added after treatment (iv). Here is the method:
Before the analysis, 3.22 μm microparticles with COOH-group/0.852 nm2 (Bangs laboratories, Fishers, Ind., USA) were covalently coated with biotin-binding proteins. Microparticles (1*108 pcs) were washed twice with H20 by sequential centrifuging (5000 g; 3 min) and aspiration, and resuspended in 200 μl PB buffer (50 mM NaH2PO4-HCl, pH 3.0). A solution of biotin binding protein (50 μl, 1 mg/ml or 3 mg/ml, 50 mM Na-acetate pH 4.0) was added while vortexing. The suspension was incubated for 1 h (500 rpm; 23° C.). Particles were washed with PB and with MES buffer (50 mM, pH 5.5) and suspended in MES buffer (200 μl). […] After the last wash particles were suspended in 100 μl volume and concentration of particles was determined with Multisizer 3 Coulter Counter (Beckman Coulter, Fullerton, Calif., USA). […]
Microparticles (5*106 pcs) were suspended in 900 μl of assay buffer and aliquoted in […] PCR-tubes (i-v; 180 μl/aliquot). […] The samples were measured with ArcDia TPX PlateReader (ArcDia Ltd.) (Soini, E., Meltola, N. J., Soini, A. E., Soukka, J., Soini, J. T. & Hanninen, P. E. (2000) Biochem. Soc. Trans. 28, 70-74). […]
The fluorescence emission efficiencies of the BF523-biotin conjugate (200 nM) was determined before and after the incubation (30 min) at 95° C. […]

As for “wt Avidin: Wild-type chicken avidin (SEQ ID NO 1), purified from chicken egg-white [reference compound]”, the “original signal after heat treatment of coated particles” value is on record as 9%.

(Values after patent US20060281899A1, “Mutants of biotin binding protein” (priority 2002, published 2006).)
